Key:
[1] = biological target: Donor (Alexa 488)-labeled, biotinylated Avi-C-Aβ42 (Avi-D-Aβ42) (UniProt P05067); test: FRET or BRET
[2] = biological target: Donor-labeled tetramerization domain (TD) of p53 with AviTag (Avi-D-TD); test: FRET or BRET

Kd [1] | stoichiometry N [1] | stoichiometry N [2] | Substance
240 µM | > 10 |  | Acceptor (Alexa 594)-labeled C-Aβ42 (A-Aβ42) (from UniProt P05067 672-713) (peptide)
 |  | 4 | Acceptor-labeled tetramerization domain (TD) of p53 (TD-A) (domain or fragment)
